# Laboratory results: PMC9257163, “Fluorescence Detection of Cancer Stem Cell Markers Using a Sensitive Nano-Aptamer Sensor”
# T1: CD133 (prominin-1) (UniProt O43490 20-865)
# T1 sequence: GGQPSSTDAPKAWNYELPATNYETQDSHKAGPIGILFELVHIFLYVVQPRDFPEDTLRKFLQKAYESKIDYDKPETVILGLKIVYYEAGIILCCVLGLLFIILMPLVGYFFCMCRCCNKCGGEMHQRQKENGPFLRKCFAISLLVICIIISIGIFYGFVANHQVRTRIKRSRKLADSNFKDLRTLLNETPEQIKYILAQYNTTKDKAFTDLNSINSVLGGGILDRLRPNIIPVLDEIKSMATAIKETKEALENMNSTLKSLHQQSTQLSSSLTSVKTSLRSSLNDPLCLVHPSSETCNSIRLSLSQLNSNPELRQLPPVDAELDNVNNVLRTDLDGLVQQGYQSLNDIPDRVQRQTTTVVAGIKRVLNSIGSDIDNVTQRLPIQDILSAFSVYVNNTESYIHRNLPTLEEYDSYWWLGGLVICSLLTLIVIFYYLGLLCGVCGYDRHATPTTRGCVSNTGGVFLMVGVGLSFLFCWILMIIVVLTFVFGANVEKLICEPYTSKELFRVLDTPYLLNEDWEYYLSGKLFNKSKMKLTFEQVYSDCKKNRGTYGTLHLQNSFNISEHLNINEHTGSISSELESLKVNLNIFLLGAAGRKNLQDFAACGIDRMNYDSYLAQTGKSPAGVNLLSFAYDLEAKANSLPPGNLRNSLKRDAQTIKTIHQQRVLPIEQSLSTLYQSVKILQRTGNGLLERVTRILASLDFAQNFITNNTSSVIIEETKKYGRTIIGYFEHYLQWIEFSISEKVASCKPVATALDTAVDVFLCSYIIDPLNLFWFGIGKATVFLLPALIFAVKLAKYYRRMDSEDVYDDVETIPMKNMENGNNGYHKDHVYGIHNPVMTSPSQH
# T2: IL-1α (UniProt P01583 113-271)
# T2 sequence: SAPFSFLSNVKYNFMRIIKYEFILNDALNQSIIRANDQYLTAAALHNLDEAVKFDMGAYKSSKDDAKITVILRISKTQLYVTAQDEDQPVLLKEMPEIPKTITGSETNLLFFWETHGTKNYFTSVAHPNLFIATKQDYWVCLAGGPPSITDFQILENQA
# Experiments:
# [1] = target: T1, CD133 (prominin-1); experiment: competition (FRET turn-on displacement of AuNPs-ssRNA); 0-1.539 uM CD133, 5 nM QD-aptamer; maximum recovery 68%; LOD 6.99 nM (not a Kd); QD-aptamers redispersed in PBS; sensor annealed from 95 °C to room temperature; binding buffer, pH and temperature not stated in the material; settings: label: CdSe/ZnS QD on aptamer 5' end; AuNP (25 nm) on ssRNA 5' end; partially complementary RNA duplex; about 7 aptamers per QD; ssRNA displaced by protein
# [2] = target: TGF-β1 (UniProt P01137 279-390); experiment: competition (FRET turn-on displacement of AuNPs-ssRNA); 2 uM protein; QD-aptamers redispersed in PBS; sensor annealed from 95 °C to room temperature; binding buffer, pH and temperature not stated in the material; settings: chain copies: 2; label: CdSe/ZnS QD on aptamer 5' end; AuNP (25 nm) on ssRNA 5' end; partially complementary RNA duplex; about 7 aptamers per QD; ssRNA displaced by protein
# [3] = target: EGFR (UniProt P00533 25-645); experiment: as above; settings: chain copies: 2; label: CdSe/ZnS QD on aptamer 5' end; AuNP (25 nm) on ssRNA 5' end; partially complementary RNA duplex; about 7 aptamers per QD; ssRNA displaced by protein
# [4] = target: T2, IL-1α; experiment: as above; settings: label: CdSe/ZnS QD on aptamer 5' end; AuNP (25 nm) on ssRNA 5' end; partially complementary RNA duplex; about 7 aptamers per QD; ssRNA displaced by protein
# Chain of TGF-β1 (P01137 279-390): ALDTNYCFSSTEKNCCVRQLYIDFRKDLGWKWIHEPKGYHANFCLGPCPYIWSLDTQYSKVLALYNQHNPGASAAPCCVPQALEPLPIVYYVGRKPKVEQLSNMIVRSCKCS
binder,measurement,setting,value
"CD133 aptamer sensor (QD-aptamer hybridized to AuNPs-ssRNA) (mixed, 5'-NH2 on aptamer; 5'-SH on ssRNA) RNA 1: CCCUCCUACAUAGGG RNA 2: CCCUAUG",binding result,[1],binds
same,binding result,[2],no binding
same,binding result,[3],no binding
same,binding result,[4],no binding
